Test results from patent US20030073808A1 (KIMBERLY CLARK WORLDWIDE, published 2003).
Primed or numbered codes have the meaning given here. Where no end group is shown, it is not given here. PSDE = pyridine disulfide ethylenediaminetetraacetic acid; AFTA = 2-amino-4-fluorophenol N,N,O-triacetic acid; AFTA″ = not defined here

Experiments:
[1] = molecular target: T1, Active MMP-9 enzyme (UniProt P14780 107-707, limits assumed); experiment: enzyme inhibition of MMP-9 (FRET substrate peptide cleavage, inhibitory constants derived from the curves)
T1 construct: Bought as 'Active MMP-9 enzyme' from Calbiochem
T1 sequence (P14780 107-707 limits assumed): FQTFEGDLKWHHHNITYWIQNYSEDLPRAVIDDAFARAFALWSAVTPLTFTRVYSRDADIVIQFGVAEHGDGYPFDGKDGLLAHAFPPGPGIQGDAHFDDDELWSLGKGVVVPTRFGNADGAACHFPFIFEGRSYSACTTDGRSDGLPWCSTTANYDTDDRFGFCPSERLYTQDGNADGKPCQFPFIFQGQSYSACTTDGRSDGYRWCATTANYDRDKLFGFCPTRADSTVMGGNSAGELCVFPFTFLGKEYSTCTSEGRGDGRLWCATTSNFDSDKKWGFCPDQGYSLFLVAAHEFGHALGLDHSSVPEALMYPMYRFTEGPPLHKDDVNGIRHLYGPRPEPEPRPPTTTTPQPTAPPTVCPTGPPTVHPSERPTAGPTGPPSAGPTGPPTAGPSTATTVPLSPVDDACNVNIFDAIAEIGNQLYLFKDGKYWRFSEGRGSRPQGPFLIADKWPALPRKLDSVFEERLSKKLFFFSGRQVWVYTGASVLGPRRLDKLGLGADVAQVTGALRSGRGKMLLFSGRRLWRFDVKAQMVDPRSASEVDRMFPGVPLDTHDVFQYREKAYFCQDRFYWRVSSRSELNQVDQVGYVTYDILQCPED
Procedure: FIG. 4 illustrates ChePep-5 regulation of MMP-9 via FRET assay. ChePep-5 is composed of a AFTA combined with a peptide having SEQ ID No. 7. ChePep-5 was incubated with MP-9 for 10 minutes to effect binding. This mixture was added to the FRET substrate peptide in reaction buffer. Fluorescence measurements were made at the indicated times. The curves represent ChepPep-5: MMP-9 molar stoichiometries of 0:1 (closed circles), 0.1:1 (open circles), 0.2:1 (closed squares), 0.3:1 (open squares). Excitation was at 365 nm, and the emission was fixed at 450 nm.
The second assay utilized the technique of fluorescence resonance energy transfer (FRET). The substrate peptide (Calbiochem #444221) comprised seven amino acids, coupled to a carboxyl terminal dinitrophenyl acceptor, and an amino terminal 2-aminobenzo-anthraniloyl (Abz) moiety donor. Cleavage of this substrate by MMP-9 results in the liberation of a fluorescent product (365 nm excitation, 450 nm emission). […] MMP at a concentration of 0.1 μM was mixed with varying amounts of chelating peptide (0, 0.01, 0.02, 0.04, and 0.1 μM) and incubated at 25° C. for 10 minutes to effect binding. The protein mixture was added to the peptide substrate and mixed quickly. Fluorescence intensity as a function of time was measured with a Dynex MFX fluorescence microtiter plate reader. Fluorescence intensity was related back to moles of peptide cleaved by producing a standard curve with an Abz containing non-FRET peptide. Inhibitory constants were derived from the curves and are listed below in Table 2.

[2] = molecular target: T1, Active MMP-9 enzyme; experiment: enzyme inhibition of MMP-9 (fluorescent substrate cleavage, inhibitory constants derived from the curves)
Procedure: Two enzymatic assays were performed. The first assay measured the enzymatic hydrolysis of fluoresceinated collagen by MMP-9 as a function of time. Fluoresceinated collagen (Molecular Probes, Inc.), at a concentration of 5 μM was added to reaction buffer (50 mM Tris-HCl (pH 7.6), 150 mM NaCl, 5 mM CaCl₂, 0.1 mM NaN₃) and was placed into a Spectrosil quartz fluorometer cuvette. MMP at a concentration of 0.1 μM was mixed with varying amounts of chelating peptide having SEQ ID No. 4 or 6 and incubated at 25° C. for 10 minutes to effect binding. The protein mixture was added to the collagen substrate and mixed quickly. Fluorescence emission intensity at 520 nm was measured as a function of time (excitation wavelength 495 nm) in a Shimadzu RF5301 fluorometer. The fluorescein release assay was used to determine the inhibitory constant (Kᵢ) of the chelating peptide inhibitor ([I]) according to Segel (1993) via the use of Dixon plots (1/v vs. [I]), such that: […]

Binder | Ki [1] [µM] | Ki [2] [µM]
IYTAC(PSDE)MSAV (not fully specified (C-terminus)) [ChePep-3 (PSDE combined with a peptide having SEQ ID No. 6)] | 350 | –
{AFTA}-VHTHLCD (also called ChepPep-5) [ChePep-5 (AFTA combined with a peptide having SEQ ID No. 7)] | 221 | –
{AFTA″}-CTCVP (cysteine pairing not given here; reading uncertain, also called ChepPep-6; chelating peptide (CP)) [ChePep-6 (AFTA combined with a peptide having SEQ ID No. 8)] | 125 | –
C(PSDE)SAVPVH (Synthetic TIMP-derived peptide covalently coupled to a small-molecule zinc chelator (PSDE); also called ChepPep-1; zinc chelating peptide) [ChePep-1 (PSDE coupled with the peptide having SEQ ID No. 4)] | – | 98
D(IDA)SAVPVH-NH2 [ChePep-2 (IDA coupled with a peptide having SEQ ID No. 5)] | 67 | –
